{"source": "paper PMC7375812", "about": "“Molecular determinants of large cargo transport into the nucleus” (eLife, 2020)", "proteins": {"B1": {"name": "MS2^S37P capsid (bacteriophage MS2 coat protein with S37P and T15C) (natural protein)", "chain": "MASNFTQFVLVDNGGCGDVTVAPSNFANGVAEWISSNPRSQAYKVTCSVRQSSAQNRKYTIKVEVPKVATQTVGGVELPVAAWRSYLNMELTIPIFATNSDCELIVKAMQGLLKDGNPIPSAIAANSGIY", "modifications": "the introduced cysteine (T15C) coupled by maleimide to Alexa Fluor 647 or to the NLS peptide Mal-…, in a share of the copies each", "notes": "coat protein of bacteriophage MS2; The NLS peptide is a branch on the cysteine, not part of the chain; source: E. coli BL21 AI, purified (PEI, ammonium sulphate, tangential flow, size exclusion after labelling); copies: 60"}, "B2": {"name": "MS2 capsid (wild-type bacteriophage MS2 coat protein with T15C) (natural protein)", "chain": "B1 chain with P38S", "modifications": "the introduced cysteine (T15C) coupled by maleimide to Alexa Fluor 647 or to the NLS peptide Mal-…, in a share of the copies each", "notes": "coat protein of bacteriophage MS2; The NLS peptide is a branch on the cysteine, not part of the chain; source: E. coli BL21 AI, purified (PEI, ammonium sulphate, tangential flow, size exclusion after labelling); copies: 180"}}, "target": "the molecule itself", "assay": "negative-stain electron microscopy; purified (and labelled) capsids adsorbed on glow-discharged carbon-coated grids, 2% uranyl acetate", "note": "Substitutions are numbered along the chain they refer to. Names may count otherwise.", "data": [{"protein": "B1", "values": [{"measurement": "binding result", "result": "binds"}]}, {"protein": "B2", "values": [{"measurement": "binding result", "result": "binds"}]}]}
